Experimental data: patent publication US20260139048A1 (NANJING LEGEND BIOTECH, published 2026)

T1: human TIGIT expressed on CHO-K1 cells (human, UniProt Q495A1 22-244)
T1 construct: whole, on cells; also called human TIGIT-CHO-K1 cells; human TIGIT over-expressing cell line
T1 sequence (looked up): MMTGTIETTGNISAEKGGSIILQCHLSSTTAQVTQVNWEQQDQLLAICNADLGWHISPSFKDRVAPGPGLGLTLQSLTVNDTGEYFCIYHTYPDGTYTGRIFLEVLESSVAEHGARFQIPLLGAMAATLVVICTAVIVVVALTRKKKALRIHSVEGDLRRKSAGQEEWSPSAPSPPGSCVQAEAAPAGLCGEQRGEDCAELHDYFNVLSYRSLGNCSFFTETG

T2: TIGIT on TIGIT-over expressing NFAT-Luc/Jurkat effector cells (GenScript reporter cell line) (UniProt Q495A1 22-244, limits assumed)
T2 sequence (looked up): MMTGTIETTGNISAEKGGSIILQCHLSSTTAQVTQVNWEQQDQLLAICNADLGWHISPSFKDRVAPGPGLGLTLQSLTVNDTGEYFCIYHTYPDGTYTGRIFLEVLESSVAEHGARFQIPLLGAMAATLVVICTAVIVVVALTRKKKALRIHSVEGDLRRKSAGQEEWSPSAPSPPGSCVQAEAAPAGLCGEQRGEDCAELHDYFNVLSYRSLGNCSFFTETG

T3: His-tagged human TIGIT (human, UniProt Q495A1 22-141)
T3 construct: SPR analyte; also called human TIGIT protein; not shown: His tag
T3 sequence: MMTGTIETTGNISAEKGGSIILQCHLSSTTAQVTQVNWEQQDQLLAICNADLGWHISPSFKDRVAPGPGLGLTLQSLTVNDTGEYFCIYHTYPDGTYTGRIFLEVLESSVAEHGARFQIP


Assays:
[1] = target: T4, cynomolgus TIGIT expressed on CHO-K1 cells (cynomolgus, UniProt A0A7N9I9V4 89-312); experiment: flow cytometry on CHO-K1 cells expressing cynomolgus TIGIT
T4 construct: whole, on cells; also called cynomolgus TIGIT over-expressing cell line

[2] = target: T1, human TIGIT expressed on CHO-K1 cells; experiment: flow cytometry competition: biotinylated CD155-Fc on human TIGIT-CHO-K1 cells
[3] = target: T1, human TIGIT expressed on CHO-K1 cells; experiment: flow cytometry on CHO-K1 cells expressing human TIGIT
[4] = target: T2, TIGIT on TIGIT-over expressing …; experiment: cell-based or functional assay
His-tagged human TIGIT [5] = target: T3, His-tagged human TIGIT; experiment: SPR (Biacore T200), antibody captured, His-tagged TIGIT analyte
[6] = target: T5, His-tagged cynomolgus TIGIT (cynomolgus, UniProt A0A7N9I9V4 89-209); experiment: as above
T5 construct: SPR analyte; also called cynomolgus TIGIT protein; not shown: His tag

His-tagged human TIGIT [7] = target: T3, His-tagged human TIGIT; experiment: SPR experiment 2, IgG from HEK293 supernatant captured
His-tagged human TIGIT [8] = target: T3, His-tagged human TIGIT; experiment: SPR experiment 1, IgG from HEK293 supernatant captured

T4 sequence (A0A7N9I9V4 entry or part of it): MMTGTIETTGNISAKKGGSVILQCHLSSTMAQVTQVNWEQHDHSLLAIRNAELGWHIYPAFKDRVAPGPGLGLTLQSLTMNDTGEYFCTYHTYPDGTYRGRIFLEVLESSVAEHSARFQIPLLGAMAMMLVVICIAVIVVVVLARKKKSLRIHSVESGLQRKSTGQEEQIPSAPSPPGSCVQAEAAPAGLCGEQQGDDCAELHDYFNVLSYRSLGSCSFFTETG
T5 sequence (A0A7N9I9V4 entry or part of it): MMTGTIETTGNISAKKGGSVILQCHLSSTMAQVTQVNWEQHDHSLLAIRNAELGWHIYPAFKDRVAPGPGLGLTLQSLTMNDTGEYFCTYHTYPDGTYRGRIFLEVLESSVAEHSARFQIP

Binder | EC50 [1] | IC50 [2] | EC50 [3] | Bottom (RLU) [4] | EC50 [4] | Top (RLU) [4] | Kd (His-tagged human TIGIT [5]) | koff (His-tagged human TIGIT [5]) | kon (His-tagged human TIGIT [5]) | Kd [6] | koff [6] | kon [6] | Kd (His-tagged human TIGIT [7]) | koff (His-tagged human TIGIT [7]) | kon (His-tagged human TIGIT [7]) | Kd (His-tagged human TIGIT [8]) | koff (His-tagged human TIGIT [8]) | kon (His-tagged human TIGIT [8])
huTIGIT-19-1 (antibody, human IgG1, kappa, V domains shown, Humanized IgG; also called 19VH4.M9 + 19VL1.M4) VH: QVQLVQSGAEVKKPGASVKVSCKASGYTFTRYSMYWVRQAPGQGLEWIAFIDAYSGGSTYNQRFRGKATLTVDTSISTAYMELSRLRSDDTAVYYCARGGDYGWYLGVWGQGTLVTVSS VL: DIQMTQSPSSLSASVGDRVTITCRPSENIYTYLSWYQQKPGKAPKLLIYNAKSLPSGVPSRFSGSGSGTDFTLTISSLQPEDFATYYCQHHYGNPLTFGQGTKVEIKR | 473 pM | 220 pM | 294 pM | 53900 RLU | 2050 pM | 144000 RLU | 160 pM | 0.00019 s⁻¹ | 1.1e+06 M⁻¹ s⁻¹ | 47 pM | 3.7e-05 s⁻¹ | 790000 M⁻¹ s⁻¹ | – | – | – | – | – | –
huTIGIT-6-1 (antibody, human IgG1, kappa, V domains shown, Humanized IgG; also called 6VH6.M4 + 6VL1.M1) VH: QVQLVQSGAEVKKPGASVKVSCKASGYTITENTMHWVRQAPGQRLEWIGGINPNQGGTSYSQKFQGRATLTVDTSASTAYMELSSLRSEDTAVYYCTRSSYYRYDLDYWGQGTTVTVSS VL: DIQMTQSPSSLSASVGDRVTITCQASQDIKTALAWYQQKPGKAPKLLIYSASYRYTGVPSRFSGSGSGTDFTFTISSLQPEDIATYYCHQHYTTPWTFGGGTKLEIKR | 4690 pM | 1040 pM | 1160 pM | 51200 RLU | 9100 pM | 131000 RLU | 210 pM | 5.6e-05 s⁻¹ | 260000 M⁻¹ s⁻¹ | 75000 pM | 0.0044 s⁻¹ | 59000 M⁻¹ s⁻¹ | 340 pM | 9.8e-05 s⁻¹ | 280000 M⁻¹ s⁻¹ | – | – | –
humanized TIGIT-6 antibody 6VH6.M3 + 6VL1.M1 (antibody, V domains shown, Full-length IgG, tested as HEK293 supernatant) VH: QVQLVQSGAEVKKPGASVKVSCKASGYTITENTMHWVRQAPGQRLEWIGGINPNNGGTSYSQKFQGRATLTVDTSASTAYMELSSLRSEDTAVYYCTRSSYYRYDLDYWGQGTTVTVSS VL: DIQMTQSPSSLSASVGDRVTITCQASQDIKTALAWYQQKPGKAPKLLIYSASYRYTGVPSRFSGSGSGTDFTFTISSLQPEDIATYYCHQHYTTPWTFGGGTKLEIK | – | – | – | – | – | – | – | – | – | – | – | – | 500 pM | 0.00016 s⁻¹ | 320000 M⁻¹ s⁻¹ | – | – | –
humanized TIGIT-6 antibody 6VH6.M4 + 6VL1 (antibody, V domains shown, Full-length IgG, tested as HEK293 supernatant) VH: QVQLVQSGAEVKKPGASVKVSCKASGYTITENTMHWVRQAPGQRLEWIGGINPNQGGTSYSQKFQGRATLTVDTSASTAYMELSSLRSEDTAVYYCTRSSYYRYDLDYWGQGTTVTVSS VL: DIQMTQSPSSLSASVGDRVTITCKASQDVKTALAWYQQKPGKAPKLLIYSASYRYTGVPSRFSGSGSGTDFTFTISSLQPEDIATYYCHQHYTTPWTFGGGTKLEIK | – | – | – | – | – | – | – | – | – | – | – | – | – | – | – | 650 pM | 0.00015 s⁻¹ | 230000 M⁻¹ s⁻¹
huTIGIT-6-3 (antibody, human IgG1, kappa, V domains shown, Humanized IgG; also called 6VH6.M6 + 6VL1.M1) VH: QVQLVQSGAEVKKPGASVKVSCKASGYTFTENAMHWVRQAPGQRLEWIGGINPNQGGTSYSQKFQGRATLTVDTSASTAYMELSSLRSEDTAVYYCTRSSYYRYDLDYWGQGTTVTVSS VL: DIQMTQSPSSLSASVGDRVTITCQASQDIKTALAWYQQKPGKAPKLLIYSASYRYTGVPSRFSGSGSGTDFTFTISSLQPEDIATYYCHQHYTTPWTFGGGTKLEIKR | 8200 pM | 1100 pM | 1110 pM | 49400 RLU | 11100 pM | 135000 RLU | 290 pM | 9.8e-05 s⁻¹ | 340000 M⁻¹ s⁻¹ | 130000 pM | 0.0078 s⁻¹ | 61000 M⁻¹ s⁻¹ | 640 pM | 0.00017 s⁻¹ | 270000 M⁻¹ s⁻¹ | – | – | –

Further lines, results first:

EC50 [1] | IC50 [2] | EC50 [3] | Bottom (RLU) [4] | EC50 [4] | Top (RLU) [4] | Kd (His-tagged human TIGIT [5]) | koff (His-tagged human TIGIT [5]) | kon (His-tagged human TIGIT [5]) | Kd [6] | koff [6] | kon [6] | Kd (His-tagged human TIGIT [7]) | koff (His-tagged human TIGIT [7]) | kon (His-tagged human TIGIT [7]) | Kd (His-tagged human TIGIT [8]) | koff (His-tagged human TIGIT [8]) | kon (His-tagged human TIGIT [8]) | Binder
408 pM | 260 pM | 172 pM | 51300 RLU | 4280 pM | 148000 RLU | 490 pM | 0.00059 s⁻¹ | 1.2e+06 M⁻¹ s⁻¹ | 87 pM | 7.3e-05 s⁻¹ | 840000 M⁻¹ s⁻¹ | – | – | – | – | – | – | huTIGIT-19-4 (antibody, human IgG1, kappa, V domains shown, Humanized IgG; also called 19VH4.M10 + 19VL1.M7) VH: QVQLVQSGAEVKKPGASVKVSCKASGYTFTRYSMYWVRQAPGQGLEWIAFIDAYSGGSTYAQKFQGKATLTVDTSISTAYMELSRLRSDDTAVYYCARGGDYGWYLGVWGQGTLVTVSS VL: DIQMTQSPSSLSASVGDRVTITCRASQSIYSYLSWYQQKPGKAPKLLIYNAKSLPSGVPSRFSGSGSGTDFTLTISSLQPEDFATYYCQHHYGNPLTFGQGTKVEIKR
440 pM | 240 pM | 256 pM | 55200 RLU | 2390 pM | 155000 RLU | 190 pM | 0.00021 s⁻¹ | 1.1e+06 M⁻¹ s⁻¹ | 55 pM | 5.2e-05 s⁻¹ | 950000 M⁻¹ s⁻¹ | – | – | – | – | – | – | huTIGIT-19-2 (antibody, human IgG1, kappa, V domains shown, Humanized IgG; also called 19VH4.M9 + 19VL1.M7) VH: QVQLVQSGAEVKKPGASVKVSCKASGYTFTRYSMYWVRQAPGQGLEWIAFIDAYSGGSTYNQRFRGKATLTVDTSISTAYMELSRLRSDDTAVYYCARGGDYGWYLGVWGQGTLVTVSS VL: DIQMTQSPSSLSASVGDRVTITCRASQSIYSYLSWYQQKPGKAPKLLIYNAKSLPSGVPSRFSGSGSGTDFTLTISSLQPEDFATYYCQHHYGNPLTFGQGTKVEIKR
384 pM | 210 pM | 196 pM | 53700 RLU | 2650 pM | 142000 RLU | 280 pM | 0.0003 s⁻¹ | 1.1e+06 M⁻¹ s⁻¹ | 54 pM | 4.1e-05 s⁻¹ | 760000 M⁻¹ s⁻¹ | – | – | – | – | – | – | huTIGIT-19-3 (antibody, human IgG1, kappa, V domains shown, Humanized IgG; also called 19VH4.M10 + 19VL1.M4) VH: QVQLVQSGAEVKKPGASVKVSCKASGYTFTRYSMYWVRQAPGQGLEWIAFIDAYSGGSTYAQKFQGKATLTVDTSISTAYMELSRLRSDDTAVYYCARGGDYGWYLGVWGQGTLVTVSS VL: DIQMTQSPSSLSASVGDRVTITCRPSENIYTYLSWYQQKPGKAPKLLIYNAKSLPSGVPSRFSGSGSGTDFTLTISSLQPEDFATYYCQHHYGNPLTFGQGTKVEIKR
4980 pM | 974 pM | 744 pM | 49800 RLU | 9030 pM | 129000 RLU | 270 pM | 9.6e-05 s⁻¹ | 350000 M⁻¹ s⁻¹ | 110000 pM | 0.0074 s⁻¹ | 69000 M⁻¹ s⁻¹ | 710 pM | 0.00022 s⁻¹ | 300000 M⁻¹ s⁻¹ | – | – | – | huTIGIT-6-2 (antibody, human IgG1, kappa, V domains shown, Humanized IgG; also called 6VH6.M5 + 6VL1.M1) VH: QVQLVQSGAEVKKPGASVKVSCKASGYTITENTMHWVRQAPGQRLEWIGGINPNNAGTSYSQKFQGRATLTVDTSASTAYMELSSLRSEDTAVYYCTRSSYYRYDLDYWGQGTTVTVSS VL: DIQMTQSPSSLSASVGDRVTITCQASQDIKTALAWYQQKPGKAPKLLIYSASYRYTGVPSRFSGSGSGTDFTFTISSLQPEDIATYYCHQHYTTPWTFGGGTKLEIKR
